No end group written: not given here. *: point of attachment. Acm = CC(=O)NC*

Assay [1] has as its target TSP-1 (Homo sapiens, UniProt P07996). The assay can be described thus: Affinity Sensor System (resonant mirror biosensor): binding to TSP-1 coupled to cuvette. The settings on record: peptide alone, TSP-1 immobilized in cuvette. The protocol:
(§1) Binding of undenatured (in the ligand blot protocol above, the receptor is denatured by SDS) recombinant receptor to TSP-1 was evaluated using the Affinity Sensor System, Cambridge, UK. This is an optical binding method that uses a cuvette to which either ligand or receptor is covalently coupled. A laser beam is used to detect bound proteins to the protein-derivatized cuvette surface. This method is highly sensitive and measures both the association and dissociation rate constants for ligand receptor interactions. The instrument assumes that one molecule of receptor binds one molecule of TSP-1 and calculates the dissociation constant (KD) according to the following relationships:
1) kass[R][TSP-1]=kdiss[R-TSP-1] at equilibrium, where kass is the second order rate constant for association and kdiss is the first order rate constant for dissociation
2) KD=[R][TSP-1]/[R-TSP-1]=kdiss/kass
3) [R-TSP-1]t=[R-TSP-1]eq[1-exp(-kont)], where the instrument response measure in arc seconds is proportional to receptor-TSP-1 complex R-TSP-1].
4) kon=kass[L]+kdiss where kon is the pseudo-first order rate constant for receptor TSP-1 interaction.
(§2) About 1 μg of TSP-1 was coupled to the cuvette through its amino groups to COOH groups on the cuvette surface. Unreacted groups on the cuvette surface were then blocked with ethanolamine and albumin. […] A dissociation constant of […] was calculated from a plot of the pseudo first order rate constant for association versus the concentration of the receptor, as shown in FIG. 7. Instrument response vs time readings shown in FIG. 8, where the instrument response is proportional to the concentration of receptor-TSP-1 complex, were used to plot the data points on FIG. 7.
(§3) […] The peptides used were Val-Cys-His-Ser-Lys-Thr-Arg (SEQ ID NO: 8), Val-Cys(Acm)-His-Ser-Lys-Thr-Arg (SEQ ID NO: 9), and Pro-His-Ser-Arg-Asn (SEQ ID NO: 10). The first two peptides are derived from the binding portion of the receptor, where it interacts with the Cys-Ser-Val-Thr-Cys-Gly (SEQ ID NO: 1) portion of the TSP-1 protein. The third peptide is a control.

The subject of assay [2] is receptor-TSP-1 complex. The assay is described as follows: Affinity Sensor System: peptide competition of receptor binding to immobilized TSP-1. The settings on record: peptide:receptor 1000 and 100 molar ratio. The protocol:
as §1, §2, §3

The test system of assay [3] is B16-F10 Melanoma Cells. The assay can be described thus: Cell adhesion to immobilized receptor peptides. The class given is cell-based, mouse. The settings on record: Example 12, FIG. 14. On the procedure: For the adhesion assay, in a 96 well plate, duplicate wells were covered with either TSP-1 (40 μg/ml), fibronectin (40 μg/ml), or and 1% bovine serum albumin (BSA). The wells were dried out overnight and then blocked with BSA. 100 μl of a suspension containing 2×10^5 cells were plated in the protein covered wells and incubated at 37^□ C. for 20 minutes to 1 hour. The non-adherent cells were removed and the wells were washed with a Hepes buffer. The adherent cells were fixed with 2.5% glutaraldehyde for 10 minutes and stained with 0.2% Giemsa. The stain was washed off and the cells were counted in a field of 1 mm square. Cells adhering to BSA were considered background while cells adhering to fibronectin were the positive control.
The method of Example 12 was followed except the receptor peptides Val-Cys-His-Ser-Lys-Thr-Arg (SEQ ID NO: 8) and Val-Cys(Acm)-His-Ser-Lys-Thr-Arg (SEQ ID NO: […]) were immobilized on the plates. TSP-1 and fibronectin were also immobilized on plates, as well as negative control peptides (Ala-Ser-Val-Thr-Ala-Arg (SEQ ID NO: 11) and Pro-His-Ser-Arg-Asn (SEQ ID NO: 10)) and bovine serum albumin. […] This provides support for the theory that another protein may be associated with TSP-1 and its receptor, or that the receptor is released and rebound to the membrane of the cell by another protein.

Assay [4] deals with T1, receptor-TSP-1 complex (Homo sapiens, UniProt P55036, INS254GER).
T1 construct: Full length cDNA cloned in the PBK-CMV vector was used as a template; 6xHis (pTrcHisA leader) (N); made in house; host or cells: bacteria (pTrcHisA vector)
T1 sequence (P55036 with tags, fused parts or gaps INS254GER): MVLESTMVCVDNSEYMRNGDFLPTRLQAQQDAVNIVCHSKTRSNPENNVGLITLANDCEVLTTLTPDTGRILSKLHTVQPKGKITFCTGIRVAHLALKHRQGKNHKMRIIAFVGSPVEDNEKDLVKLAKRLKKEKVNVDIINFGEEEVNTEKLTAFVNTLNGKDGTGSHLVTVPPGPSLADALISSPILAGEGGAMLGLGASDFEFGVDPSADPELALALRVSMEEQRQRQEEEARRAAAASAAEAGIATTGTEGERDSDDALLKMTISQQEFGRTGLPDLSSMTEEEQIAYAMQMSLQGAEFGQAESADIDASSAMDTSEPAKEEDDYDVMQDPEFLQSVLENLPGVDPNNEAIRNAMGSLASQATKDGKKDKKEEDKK
The assay is described as follows: Affinity Sensor System: peptide competition of receptor binding to immobilized TSP-1. The settings on record: 10 fold molar excess of peptide. The protocol: as §1, §2, §3

Assay [5] has as its target T2, receptor (Homo sapiens, UniProt P55036, INS254GER).
T2 construct: Full length cDNA cloned in the PBK-CMV vector was used as a template; 6xHis (pTrcHisA leader) (N); made in house; host or cells: bacteria (pTrcHisA vector)
T2 sequence (P55036 with tags, fused parts or gaps INS254GER): T1 sequence (P55036 with tags, fused parts or gaps INS254GER)
The assay is described as follows: Affinity Sensor System: receptor binding to TSP-1 and Cys(Acm)-Ser-Val-Thr-Cys(Acm)-Gly. The settings on record: Example 8, FIG. 11. The protocol: as §1
The methodology set forth in Example 6 was followed except that TSP-1 and Cys(Acm)-Ser-Val-Thr-Cys(Acm)-Gly (SEQ ID NO: 6) were immobilized on cuvettes and the receptor was added to the cuvettes. The Acm version of the peptide was used to increase its stability in the experiment.

Assay [6] has as its target T3, biotin-angiocidin complex binding to TSP-1 (Homo sapiens, UniProt P55036, INS254GER).
T3 sequence (P55036 with tags, fused parts or gaps INS254GER): T1 sequence (P55036 with tags, fused parts or gaps INS254GER)
The assay can be described thus: Biotin-avidin receptor binding assay: competition. The settings on record: Example 25, peptide 1 mg/ml, FIG. 32. On the procedure:
In the following experiments, TSP-1 was covalently bound to a substrate, biotinylated angiocidin was added to the plate, and avidin-peroxidase was added to measure how much biotinylated angiocidin was attached to the TSP-1. The avidin-peroxidase was measured using a spectrophotometer at an absorbance of 450 nm.
Free angiocidin was added to the system to compete with the biotinylated angiocid in. […] Immobilized BSA was used as a negative control.
The TSP-1 peptide Cys-Ser-Val-Thr-Cys-Gly (SEQ ID NO: 1) was added to the system to compete with the TSP-1 on the plate for binding with the biotinylated angiocidin. The scrambled peptide Val-Cys-Thr-Gly-Ser-Cys (SEQ ID NO: 15) was used as a negative control and had no effect.
The avidin-biotin system discussed above was used to evaluate the competitive effect of various peptides on the binding of TSP-1 and angiocidin. […] The scrambled peptide Val-Cys-Thr-Gly-Ser-Cys-Gly (SEQ ID NO: 21) and the d-orientation peptide d-Cys-Ser-Val-Thr-Cys-Gly (SEQ ID NO: 22) were used as negative controls.

The test system of assay [7] is Bovine aortic endothelial cells (BAEC). The assay is described as follows: ALAMAR BLUE cell viability assay. The class given is cell-based. The settings on record: TSP-1 at 20 μg/ml and 5 μg/ml. On the procedure: (§4) Bovine aortic endothelial cells (BAEC), human umbilical vein endothelial cells (HUVEC), fibroblast cells, A549 human lung carcinoma cells (A549), MDA-MB231 human breast carcinoma cells (MB231), MCF7 human breast carcinoma cells (MCF7) were treated with 37 μg/ml of receptor, or buffer alone, for 24 hours. Viability of the cells was measured using the ALAMAR BLUE™ assay, which measures the capacity of cells to metabolize the ALAMAR BLUE™ dye. The ALAMAR BLUE™ assay (available from Biosource International, Camarillo, Calif.) quantitatively measures the proliferation of cell lines and can establish the relative cytotoxicity of chemical agents. The assay incorporates a fluorometric/colorimetric growth indicator based on detection of metabolic activity. The system incorporates an oxidation-reduction (redox) indicator that both fluoresces and changes color in response to chemical reduction of growth medium resulting from cell growth. This causes the redox indicator to change from its oxidized, non-fluorescent, blue form to its reduced, fluorescent, red form. Data can be collected using either fluorescence-based instrumentation (530-560 nm excitation wavelength and 590 nm emission wavelength) or absorbance-based instrumentation (570 nm and 600 nm).
BAEC and BSM cells were treated with increasing concentrations of angiocidin (0, 0.625, 1.25, 2.5, 5, 15, 26 and 37 μg/ml) for 24 hours. Cell viability was measured using the ALAMAR BLUE Tm assay. […] In contrast, BSM cells are unaffected.
The methods of Example 21 were followed, except BAEC cells were used. Additionally, TSP-1 was added at both 20 μg/ml and 5 μg/ml.
As discussed in Example 19 above, angiocidin was added to BAEC cells. Fragments of angiocidin were added as well. […] GST was used as a negative control. V36-R42, the active site of the antisecretory factor, had no effect, illustrating that angiocidin plays a different role from antisecretory factor.
Bovine aortic endothelial cells (BAEC) were cultured overnight in serum-free media containing either 37 μg/ml his-tagged angiocidin or his-tagged GST. Both angiocidin and GST were expressed in bacteria transformed with the pTrcHisA expression vector and purified on nickel affinity chromatography under non-denaturing conditions. Viability was measured by the ALAMAR BLUE™ assay.
This study examined the effect of anti-angiocidin antibody on angiocidin-mediated inhibition of BAEC viability. BAEC were cultured overnight in serum-free media containing either 5 μg/ml angiocidin, 5 μg/ml angiocidin plus 100 μg/ml control IgG, or 5 μg/ml angiocidin plus 100 μg/ml anti-angiocidin IgG. Viability was measured using the ALAMAR BLUE™ assay, described above.
The endothelial cells (BAEC) were incubated overnight 37 μg/ml of the angiocidin, fragments, and GST. Viability was measured using the ALAMAR BLUE™ assay.
A general note: Alamar Blue is a resazurin reagent that responds to reducing activity.

Assay [8] has as its system human umbilical vein endothelial cells (HUVEC). The assay is described as follows: ALAMAR BLUE cell viability assay. It counts as cell-based. The protocol: as §4
Similarly, the effect of receptor on viability of BAEC cells was compared to mouse Lewis lung carcinoma cells, using the same method.
The effect of angiocidin on HUVEC cell viability was evaluated, and FGF and TSP-1 were added to determine whether they ameliorated the angiocidin effect on cell viability. FGF (Fibroblast Growth Factor) is an endothelial cell mitogen, which promotes cell growth. […] TSP-1 was expected to reverse the inhibition of angiocidin; however, quantities added may have been insufficient to provide the correct molar ratio.

TSP-1, sequence (P07996 19-1170): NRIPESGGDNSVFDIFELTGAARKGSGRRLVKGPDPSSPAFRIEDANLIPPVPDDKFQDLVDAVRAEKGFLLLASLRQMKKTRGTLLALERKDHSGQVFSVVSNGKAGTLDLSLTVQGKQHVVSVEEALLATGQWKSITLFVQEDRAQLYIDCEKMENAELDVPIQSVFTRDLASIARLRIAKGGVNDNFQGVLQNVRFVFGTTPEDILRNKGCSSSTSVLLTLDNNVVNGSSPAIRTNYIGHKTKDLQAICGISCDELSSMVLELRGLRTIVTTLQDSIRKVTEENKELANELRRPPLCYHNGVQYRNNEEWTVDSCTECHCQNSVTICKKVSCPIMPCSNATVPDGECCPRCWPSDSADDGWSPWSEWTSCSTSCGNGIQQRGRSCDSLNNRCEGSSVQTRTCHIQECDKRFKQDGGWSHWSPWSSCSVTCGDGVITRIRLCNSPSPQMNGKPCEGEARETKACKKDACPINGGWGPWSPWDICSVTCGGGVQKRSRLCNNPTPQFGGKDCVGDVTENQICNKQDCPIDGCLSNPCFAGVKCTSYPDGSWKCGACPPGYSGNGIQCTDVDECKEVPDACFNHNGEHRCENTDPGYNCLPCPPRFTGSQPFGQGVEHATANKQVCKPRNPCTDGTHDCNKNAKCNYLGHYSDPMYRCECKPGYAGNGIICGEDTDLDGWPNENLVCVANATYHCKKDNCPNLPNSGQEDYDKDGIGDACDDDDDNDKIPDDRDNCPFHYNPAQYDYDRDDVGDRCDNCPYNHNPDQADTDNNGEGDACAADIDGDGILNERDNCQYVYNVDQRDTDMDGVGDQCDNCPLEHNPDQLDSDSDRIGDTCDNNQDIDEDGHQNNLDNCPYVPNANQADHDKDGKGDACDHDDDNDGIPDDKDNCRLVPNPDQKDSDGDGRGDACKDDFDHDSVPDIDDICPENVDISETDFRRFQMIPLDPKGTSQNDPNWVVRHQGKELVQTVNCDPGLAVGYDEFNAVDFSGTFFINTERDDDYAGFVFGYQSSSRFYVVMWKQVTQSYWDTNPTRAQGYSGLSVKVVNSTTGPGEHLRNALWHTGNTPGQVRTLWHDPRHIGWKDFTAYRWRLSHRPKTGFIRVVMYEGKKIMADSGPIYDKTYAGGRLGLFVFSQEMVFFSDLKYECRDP

Consider VCHSKTR, for which, in assay [1], the “direct binding to immobilized TSP-1” value is reported as “bind directly to the immobilized TSP-1”. Also, the “inhibition of receptor binding to immobilized TSP-1” value in assay [2] is recorded as “inhibits binding of the receptor with the immobilized TSP-1”. Further, the “cell adhesion to immobilized peptide” value in assay [3] is “cause the cells to adhere to the plates, with similar affinity to the positive controls fibronectin and TSP-1”.
“Cys(Acm)-Ser-Val-Thr-Cys(Acm)-Gly (C(Acm)SVTC(Acm)G)”: the “extent of receptor binding, % of buffer control” value in assay [4] turned out to be 47%. Also, in assay [5], the “binding to the receptor” value is on record as “bind to the receptor”. Besides, the “peptide competition of TSP-1 receptor binding” value in assay [6] is reported as “inhibited binding”.
Take “TSP-1: Thrombospondin, a cell adhesive protein and matrix molecule”: in assay [5], the “binding to the receptor” value is “bind to the receptor”. In addition, the entries for the “reversal of the angiocidin inhibition of viability” value in assay [7] and in assay [8] (angiocidin 37 μg/ml plus FGF 2 ng/ml or TSP-1 20 μg/ml) were “can ameliorate some of the inhibition of angiocidin” and “neither the addition of FGF or TSP-1 reversed the inhibition of angiocidin”, respectively. For the same substance, in assay [8] (FGF 2 ng/ml, TSP-1 20 μg/ml), the “cell growth, factor alone” value is “stimulated cell growth above control”.

The record behind these values is patent publication US20030180295A1, “Angiocidin: a Cys-Ser-Val-Thr-Cys-Gly specific tumor cell adhesion receptor” (Philadelphia Health and Education Corporation, priority 1999, published 2003).
